# Test system: Saccharomyces cerevisiae
# Assay: transcriptional activation domain activity (GFP:mCherry ratio, weighted mean of sorted bins, harmonized to initial dataset scale) (arbitrary fluorescence ratio units); higher = stronger transcriptional activation
# Conditions: beta-estradiol 1 µM; induction time 4 h
# Method in brief: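 In diploid yeast carrying a GFP reporter, barcoded protein tiles fused to an estradiol-inducible synthetic transcription factor were integrated at the URA3 locus. Cultures diluted 1:5 into SC with 1 uM beta-estradiol were kept at 30 °C for 4 hours, then sorted by GFP:mCherry ratio into 8 bins before barcode sequencing. Tiles with under 50 reads were excluded. The activation activity reported here is the read-weighted mean of bin median fluorescence, averaged across barcodes and linearly rescaled to the initial dataset.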
row,Sequence,transcriptional activation domain activity
1,NKMKVHINKTNYELDSKEAVMAVLGTHRVEVSVLCLLYLVLRRHKKILDFASS,48200
2,NKVLRWALDSHIKKWSLDHLRTIAHLIQVVELHHFWSEKENAVALIRVIFKSL,59700
3,NKWLNVIQKFLKELDGRDKLMKTIQYFIKILLHYKMARAKHWSSLTSHLSMTR,66400
4,NLCELIYLDRLCGCCLFSMRSVVFIDLLSTLIQPVTVVYIVYLIYLVAANGAT,28000
5,NLCLLIAASLISIISLVNLLDFFLTWFGQFITIENLTLELILGYILYPYAWLL,40000
6,NLCMQLLVAPTRDEIDAAHRRKIWLDVGIQSWRNLTNIMPSRMWIWIILLLSS,34900
7,NLDFDFALPQTATAPDAKTVLPIPELDDAVVESFFSSSTDSTPMFEYENLEDN,91700
8,NLDFFDFENSFGDLWNMDEFYGDVAWDLSSDPPLDPLFIGELYSASGQYGDLQ,159000
9,NLFGWVRYAGVSVDHLKVHIVGAELWNRYKYAAGIWGYRALPIIALMASLIAC,54200
10,NLHNASTSSFNNEAFWKPLDSAIDHHSGDTNPNSNMNTTPNGNLSLDWLNLNL,84600
11,NLISLPLLKLCSEFAHVKWYEVLSHIVCFGFNGPTKPRSNNLVSLNLQCEHYK,48400
12,NLLARRPFFVFWFMGQIHRSLTLFHCDPTLLVALDVCKSLIPAINYLTLLWPC,70900
13,NLLDFRKILVNVVCILVVDVVLLMSMLIGLLRYSHRNSTGLWHLLYQQCIIWL,45000
14,NLLLFPGISFKTQLLYAIVFCTRYLDLFIRFVSIYNTLMKIFFIGSSFYILYL,67300
15,NLLMRPRYPPNQFISKISLRLILTDLPYMIFVFSGIFIMLGLFYPIFYLQLYA,50400
16,NLLQHIIPPFFINHHHHYYSPFHTSYTFFFSTFVYALFFYIIMYLSIFISLLL,62200
17,NLLSKELLMPAVSELNEYLDLFKNNFLPHFPIIHPSLLDLDLDSLQRYTNEDG,48900
18,NLLYQLGVFVARSSTPFIRLHNLYLPSCLQILNLLLLVSQSLYWWIPSVYLVF,76500
19,NLMGSQARSNSQTPTASTIYEEAESQSSYLDDMFRTSQGGRPVTQNSISSIGQ,56100
20,NLMIIVLVVSNLRLMIENYRKYGVLICIQCHDYRQQDILYGLILYLLVPCHLF,39400
21,NLMLQVVSPRIWFPSMQLIWGVLTFWWVAMPCRRIFITHILDHGIQIYAIRFF,61400

row,Sequence,transcriptional activation domain activity
1,NLMVIVLFVGNLRLVIENIQKYGVLICIRCHDVRESDLILGLSLYFLIPCHLL,67300
2,NLNFMPINNNYNNSGSNINNNDNVKLPSNFKNYYDPPMSSLDISMDVPDIFGS,94300
3,NLNSLNQSEEEGHIGRWPPLGYEAVSAEQKSAVQLRESQAGASISNNMNFKAN,48200
4,NLPSLIGIQLLSSMGEYVMLWLIFVGTVIYYAGWVTLVIDGFCRFLNIRCLVI,56900
5,NLQKIISYLLPAGSWSEDWPIILNVFFGCPLPLSSFLMVIICCFTDLFCCLTL,47100
6,NLRLMIVNFRKYGVLICIRCHDYRRQDVVYGLLLYLLVPCHLFVAYLIELAAA,47800
7,NLRVIELRFSLRFYRDVVFCRKLLRKHEVFVTIIKLLLCLLTLDIEGLKIKVG,46500
8,NLSLQEIVGILLRANAFRPMCKNCEHLRDKVGAHIVDCACFEYWLQLGLFIAP,47000
9,NLSPLVLPLWVQLNIYFGIVFLWILAPLVFYYNVWNAQSFPFLSNSIFQLLPN,64600
10,NLVRCYYYYGYFGLQSCMVHVFLWFMWWIFLLSSRPLQSTPLSIIWRIILYQA,29700
11,NLYGNDEEVLFYEDNYNPKMQWSLQDNSAAINNEDARAIFNNEFDSDDDDISD,86600
12,NMDQLDSVHNLNDDDLQQLLEDLGNIDHSDEKLWKEITDQAMWLGNTMDPTAA,149000
13,NMGEQQKFTSPQHIVHKAKFLSNAADSEYSILSNIIYQDTLSNKIPIDILYSN,76900
14,NMMLYLLKGLPALSMSDPASITRFIKLVDELLYYAYEAERRSPLPTSHPNLVR,65700
15,NMSPNNDDNSIDTASTNTTNRKKNIDENIKNNNDIINDIIFNTNLANNLSNYN,51000
16,NNCVGYFNYCHFIRLIVYANITTIYIFVLLCCRAHQIIFIQSASLEVGFLCVN,66500
17,NNETETATKARRKKQAPKAAVEGSEDYESETATKAVAKKETKKKPIQKEVLVP,< 6570
18,NNGKGQGKRRASSSALAAEKMVEKEAWLRSPKAVCTLSIAVMRSALHLMNAHL,67700
19,NNIISNRKQASKEKRKIPRHIQTIDEKLINDSNYLAFLKFDDLENEKFHSSAS,56600
20,NNLLELITDIIIALDMNFVNCMTCVDDDEKALMTLRICEYFIDRLVRTIMVAT,51300
21,NNLNITGYEWISSELRDDALLSAVTLQGHHLGHTQPQEISLEENSNVVSGEEH,59600

row,Sequence,transcriptional activation domain activity
1,NNNSRSTEDSEDDLAIVGHGTGVERLGGLDALILRQRLLALLIRVAEALPEDF,15200
2,NNNYNNVSGKNNNNNNITNNSNNNHNNNNNDNNNNNNNNNNNNNNNNNSGNSS,49500
3,NNPDAKKARACESCRQLKVKCEPDADNPDGPCRRCAKAGRACVVTQPTRKRQK,38000
4,NNSINATPIVDNSSGSQLPNGFDRGQANNTPFPGYFGGLDLFDYDFLFGNDFA,133000
5,NNTNNASPATSTVSLQLPNLPDQNSLTPNAQNNTVTLRKGFHVLLVEDDAVSI,23700
6,NNTTSLGNAYGVCVMFVTFFDSCMVSLAALIVWRLPYYVVFLPWLVFACLDGV,52100
7,NPERRTGGRGGEGEKGRRREERDAGNRRRGGRNRAQRPKKGRRREGGRRGRGR,48800
8,NPIIRVRGIGLSLTSICFLHCYWILAQVVYPIGQSLPVILAYDIQYFFMGLWF,56900
9,NPLIIYSSQYSVWTMSFSLFFCVFWFLMAGCNFVRPSALHRVYSLIWMFILGW,51800
10,NPLPPKNNGQAAYKETDGIRIKDRRVLVDVERGRTVKGWKPRRFGGGLGGRGY,47500
11,NPMTFMGSTQRLAAIRNLRSNPKFLFVHLPNILSFLCIIVGVVWLLLLPLNEY,33900
12,NPPIPVIPADVDRSKIPKCKHIGSRLRHFDDDLGYYLVQVCINLLQRIWKIFY,37200
13,NPPSWHHTLVFWGGKLFFCFYRIILPAYLIGWARTLLYLTLSDLVSSYWLALT,51300
14,NPQLFLLGGCLTLVHLLFSSLWLWLVSILFAHDREYPSFVLLSYFMIFYFWTS,54000
15,NPSSAPAQTATTAASGTPSLFGSKPAQATGAPSSLFGGQPAAASTGASTQATP,24200
16,NPTDTILILATSLPTVSTFFINYLLLQGLIGSAIELTQAYRLLWNIVIVRWFA,54500
17,NQAQPSTSGGFGQPSAFGSATPSSSAFGGGAASTPTQPSAFGASTTPAAAPTA,8250
18,NQFSKPQVWSVGVFWWSIWLSCVWLGWWLCRLASFLAPRVLKFTIAIWMLVIY,40800
19,NQGSGSKTGGEVDLVGEREEVMRSVHDSRAQLSEDYEYERRNISLAVPLGRGQ,41000
20,NQLAEAHALALLHLEQRLNIAIELPIQKFILSHLPWLMPVLAKIYLSHIIVGV,57100
21,NQLHRPPPEILKLFEASVRFEMQIRRLIAKDWLCVATWWLLKARATLANCNRH,69100

row,Sequence,transcriptional activation domain activity
1,NQQPVFRAKYLLRQLFHLCNRTEHELRTLWTPAMVVLVARRLFDSIHPALGSL,58300
2,NQRLREDGVDEIELDIISKLHPSRKDTAPRDIKPIPASKRGEISSKFEKLHEQ,< 6570
3,NRKTIGKQDPYCAARLGKEAKKTDTDRRGGQTPRWDQELRYTVHDSPDYYQLK,33300
4,NRKTIGKQDPYCAARLGKEAKKTETDRRGGQTPRWDQELRFTVHDSADYYQLK,44000
5,NRKTIGKQDPYCAARLGKEAKKTETDRRGGQTPRWDQELRYTVHDSPDYYQLK,31200
6,NRKTIGKQDPYCAARLGKEAKKTETDRRGGQTPRWDQEMRFTVHDSPDYYQLK,21000
7,NRNQDAAEPSAAASSSAAAPAETPARGGNRQNDGANNQGGNNQNNGGNNRQQE,41100
8,NRPGQKSIQVLNQYIGIDIGKCYLCGRLCVNLSYVCWSSPQLLYNCRMVMITR,41000
9,NRRDASPEPHHKGKGKGKKNNRREAEADAEIEVREPHHKGKGKGKKNNAREAE,21700
10,NRSDEPELDVKELNRHVNADNLSDLQLDDSQKMGYVYKCLGAGIHLLRLSLRL,39000
11,NRTLSTKDLIVLRLCSSFFAYFIISLFYCLMNLAFQIVVDRKFGQAGFIVFWM,62100
12,NRVIGVQGKNQEGACYEKLSPSSTSVSVGMDFCSLENFVTAESLPDLLNLFWE,111000
13,NRWMMATFMSGCVGALVYFFYKLVKVVMLKSTPSFVSIWKSLTTFSIIAIFLL,37200
14,NSFPKECEVVHEELRKLTHLVSALPREGLLYHGRLILRYLETVVCACLIMFDG,71100
15,NSGDEGDAGAAEVEAPKSKKKRGRAAKEEDDDEETPAPVPKKARGRAKKATKE,23700
16,NSIIPFFRFLGCIVLSGAFYFYIFFYAFLLCLFLIYFFFHGSKLGFFHFIFFP,40600
17,NSLKGMAVDFRWWLLAHKKRPLREVNLILQLDSLTEVIKLACVSPKLSFLCIM,71000
18,NSLRNLFDLVGCSSLCSSSQKRGFVGRLVVDFASCAWPPVIVILLIWISLFWW,39200
19,NSLYLLPTAMTGEKPVADPLTLIRYILVWFPHIWCVICIHCHWPYFLFLNLTD,78400
20,NSSEEEDRNRRERKRKREKEREKKKESRRHRSRSRRSKEVEDDDEKDRKRHRR,14500

# From the supplement of paper PMC12636428
